Results on one molecule are retold here after paper PMC9428257, “Developing high-affinity decoy receptors to treat multiple myeloma and diffuse large B cell lymphoma” (The Journal of Experimental Medicine, 2022).

In this assay the target is T1, human BAFF (B cell activating factor) (human, UniProt Q9Y275 134-285).
T1 construct: also called hBAFF
Nature of the assay: flow cytometry on cells; yeast-displayed sBCMA (wild type or mutant clone) incubated with increasing concentrations of soluble APRIL or BAFF; same reagents and protocols as the library sorts (PBS with 0.1% BSA, room temperature); KD from a one site-specific binding fit in GraphPad Prism. The settings on record: one partner purified. In general terms: Flow cytometry measures light scatter and fluorescence of single cells or particles in a stream.

T1 sequence (Q9Y275 134-285): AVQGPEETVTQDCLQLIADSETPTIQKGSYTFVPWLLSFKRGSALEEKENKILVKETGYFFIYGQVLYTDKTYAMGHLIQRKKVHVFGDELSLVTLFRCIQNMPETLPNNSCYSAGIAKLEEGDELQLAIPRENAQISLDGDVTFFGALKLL

B1: yeast-displayed mutant sBCMA V3 (S16G, H19Y, T36A, N53D) (domain or fragment, human, UniProt Q02223 1-54, looked up)
chain: MLQMAGQCSQNEYFDGLLYACIPCQLRCSSNTPPLACQRYCNASVTNSVKGTDA
notes: B cell maturation antigen (BCMA), human, extracellular domain, amino acids Met1-Ala54, with the four V3 mutations
By Kd is commonly meant a measure of binding affinity in units of concentration. On to B1, for which the affinity, expressed as Kd, was 9 pM. This lies in the picomolar range.
